In the domain aggregation screens of Martell et al. (2025):

Test: soluble fraction after stress (log2 fold change); higher = more stays soluble; pooled small domains, quantitative proteomics
Conditions: stress: pH 4
In short: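 Custom libraries of small protein domains were pooled and measured with high-throughput quantitative proteomics after pH 4 stress. The read-out is the fold change in the amount of each domain that stays soluble after the acid stress, taken as a measure of aggregation propensity. Fold changes are on a log2 scale, and higher values mean more of the domain stayed soluble.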

## HMPKMISPAQIKAIGAKTNNIAKASGVEQAQVYQSAVAHLGINNKSTKELTSQEASKVIEYLSTL
  soluble fraction (log2): 0.158

## HMEFEKYKYHYIFDDVLGLRIVWDRGKEHFSYFVNEELAEKSRKSDKDALEVMFYLEHKRWPEEGELENY
  soluble fraction (log2): -1.07

## HMLSRTYDSSGPDVKIRGTAQTVADKYMSLARDAQSSGDRVMAENYLQHAEHYNRIIAAAQAQ
  soluble fraction (log2): 0.221

## HMIMTGSIQEKNGKYYTVLNIKDKNGKYKKKWQTTGLPVKGNKRKAEQILRRRIAEYEANQL
  soluble fraction (log2): ≥ 0.43

## HMAVGTASNLIGKDIEAYAPIDGSQSSDDTKTISGKVESVHIKDGVVYMNVKDSQSENIIEVEYGALIKVN
  soluble fraction (log2): 0.247

## HMKVQLGMNTREVRGIMGKPFSEDTFVEGEKRVDVLHYKEAVRVKTQGFILTTSLRFENDSLTAI
  soluble fraction (log2): -1.02

## HMNKEQIASNIAEARKRSGLNQSELARRLGIRPQSVQQWEKGTATPKLDRLTAIAQVLGVSLESLTG
  soluble fraction (log2): 0.22

## HMNPTTDFFKLEGIDATRILVFDQVGRQVAQFSQPAQQMDIQALPAGVYALRIENADGQVYSARIVK
  soluble fraction (log2): -0.773

## HMQNYTTIIGVIELRLNDISYDNVRKRYHIGRSGITLIMDRYRDSGLSLEDLKQMTPEKVVDLFYPR
  soluble fraction (log2): 0.0145

## HMSRSLEIDVLVKALLEQDRRKFMLVTDGTADVTVRYNNALPSLFREGQGVVAEGLMDNGKFIATNVLAK
  soluble fraction (log2): -0.793

## HMLNTLGADIRALRKARGLTLAELAQTLGRSVGWLSQVERDMSEPGINDLRDLARALDVSISSLFG
  soluble fraction (log2): -0.366

## HMFSAASSQISSYVRSVVDKAQTYEQAYEILAKNPLGFKLDALEDELFRIIANAEILGADDDE
  soluble fraction (log2): -1.24

## HMAEPIEKIIIEGNQRIEALTIQSYLLLRVGEPFNRQLMNQTLKSLYATGYFSDVAVTRVSSSLLVK
  soluble fraction (log2): -0.0595

## HMLQYSQEIEEAQKILQNLGLYKGEIDGINGVNTKSAIKEFQRKSGLIIDGILGPNTTSALSKGAESYITV
  soluble fraction (log2): 0.0398

## HMNKIENLSQTILNILRKDHSQAFNYKQIAAKLQLDDPSSRNQIVKKLKDLQGKGTIQEIERGKYILTP
  soluble fraction (log2): ≥ 0.43

## HMALEGTLARVSVRIPESGVGEIIFSLGGVRRSEAARSVSGRAIPRGTEVVILSYERGIATVQPYEELLTN
  soluble fraction (log2): -0.256

## HMKRPEPESPEAERRSQRAADWLVRRDRGLTAAEQDEFLQWLAIDPRHGEWFALHRSVVGEFSA
  soluble fraction (log2): -1.12

## HMDESIPVITYKDSVYANPKAFADAHKLPYKSLHNALSKARKEGKVRFMYKQYNFHLDNNGYIVAVS
  soluble fraction (log2): -0.195

## HMTLDDSIALGRSLLDKGLMDFGTNLANLAEDKLRDFLSQQRYENLDDLFADIARGNRLPMFTAQQLLS
  soluble fraction (log2): -0.481

## HMEGNAFASTGDPEADILDITAVHPMRRDAVEELLARSGAEWSLVEGMLRDGKITMAPWEGEEFFIRS
  soluble fraction (log2): -1.35

## HMDIMNNILINRIKKILTEQNMSKADLSRLTGISNSSLSEYLNGKYEPKQDKIALIAKALHVSPAWLMGF
  soluble fraction (log2): 0.166

## HMKGYIGESKARNIALKKAPGASITKFEFDKDDGIAVYEVELRKGIYEYELKINAVTGAIIEFEKDIE
  soluble fraction (log2): 0.147

## HMNNDSQYLATLQRYYAEHRVLPSYARMLPLLGFASKAAVKKVLERLEVVGMLERTEDGDWAPSERFFER
  soluble fraction (log2): 0.0419

## HMSKTKDVLVQLMAERGLTQSDIARALSVRPQAVQQWVSGKTRPTGKNLEALAEFLQLPPAVIVHGP
  soluble fraction (log2): 0.344

## HMMTLEESYKLLQVSHNASDIEITKAFKKLALLYHPDKNPSNIDWANKAMASINVAYNTIITHRFKEK
  soluble fraction (log2): -0.2

## HMDDPLSQLTPREREVLELMASGASNQGIADALVITVRAVEKYVSSIFGKLGLPSTGSESRRVLAVLTFLR
  soluble fraction (log2): -1.32

## HMDDSVVFSLNAKGIRLTGAGKYGEAIALFDKAIAAKPGLSGLYFNRAEARRLSGDLPGARSDLEQALAI
  soluble fraction (log2): -0.113

## HMQYALEDDLDSAIKLLTGKGLSGTVAWGWSDTYINVGKKSYSMEFIAKMLLRLGEGSRVTIQVDPA
  soluble fraction (log2): -1.28

## HMEPSQEFSLADMVAYDLTGYPKSAALRAAVGASLGIGYGNAKQFVYRLNHYGISKDDFHRAAQEALDGL
  soluble fraction (log2): 0.057

## HMSSQADEEALFKLLAANPYSDEQLEEIRIAIGSGIAYKDIIRIADIGNTAERMKQLRLEFTKDTAN
  soluble fraction (log2): -0.353
